Data on one molecule can be found in paper PMC7280208, “Integral approach to biomacromolecular structure by analytical-ultracentrifugation and small-angle scattering” (Communications Biology, 2020).

The target of the experiment is T1, PUB domain of peptide:N-glycanase (UniProt Q9JI78 1-119).
T1 construct: PUB domain of peptide:N-glycanase (PNGase); molecular weight 12.5 kDa as printed in the methods; PDB 2D5U is, as I recall, the mouse protein; The supplement's 1.34 mg/mL for 100 µM implies 13.4 kDa, not the 12.5 kDa of the methods; also called PNGase-PUB; component B; source: purified, dialyzed in 10 mM sodium phosphate buffer (pH 7.0) or PBS
T1 sequence: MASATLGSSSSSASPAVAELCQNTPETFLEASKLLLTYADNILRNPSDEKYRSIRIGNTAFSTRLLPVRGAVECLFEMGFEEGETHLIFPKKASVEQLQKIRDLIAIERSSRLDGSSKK
Kind of experiment: AUC; sedimentation equilibrium (SE-AUC) of the mixture in 10 mM sodium phosphate buffer (pH 7.0), 25 °C; [hHR23b-UBL] = [PNGase-PUB] = 100, 75 and 50 µM; 20000, 30000 and 35000 rpm; absorbance optics; global fit with the association-dissociation equilibrium model A + B = AB (eq. 7, SEDPHAT). Conditions: both partners purified.

The Kd is a measure of binding affinity in units of concentration.

B1: ubiquitin-like domain of the proteasome shuttle factor hHR23b (domain or fragment)
chain: not shown
notes: ubiquitin-like (UBL) domain of hHR23b; molecular weight 9.5 kDa as printed; also called hHR23b-UBL; component A; source: purified, dialyzed in 10 mM sodium phosphate buffer (pH 7.0) or PBS
Take B1: the Kd was 227 ± 28 µM.
